Test results taken from article PMC12603206, “The sensitive and selective electrochemical detection of carcinoembryonic antigen using a nanoMIPs-aptamer sandwich assay”.

Target: Carcinoembryonic antigen (CEA) (UniProt P06731 35-685)
Test: electrochemical nanoMIPs-aptamer sandwich assay (SWASV of Pb2+); CEA captured on nanoMIPs electrode; aptamer on MOF-Pb probe; linear 1-1000 ng/mL, LOD 1.4 ng/mL (sensor values, not Kd); CEA in 0.01 M PBS pH 7.4, 1 h on nanoMIPs electrode, PBS/0.05% TWEEN20 wash; MOF-Pb-Apt probe (stored in 10 mM Tris-HCl pH 7.4) 30 min; temperature not stated
Settings: protein: commercial

Chain of Carcinoembryonic antigen (CEA) (P06731 35-685): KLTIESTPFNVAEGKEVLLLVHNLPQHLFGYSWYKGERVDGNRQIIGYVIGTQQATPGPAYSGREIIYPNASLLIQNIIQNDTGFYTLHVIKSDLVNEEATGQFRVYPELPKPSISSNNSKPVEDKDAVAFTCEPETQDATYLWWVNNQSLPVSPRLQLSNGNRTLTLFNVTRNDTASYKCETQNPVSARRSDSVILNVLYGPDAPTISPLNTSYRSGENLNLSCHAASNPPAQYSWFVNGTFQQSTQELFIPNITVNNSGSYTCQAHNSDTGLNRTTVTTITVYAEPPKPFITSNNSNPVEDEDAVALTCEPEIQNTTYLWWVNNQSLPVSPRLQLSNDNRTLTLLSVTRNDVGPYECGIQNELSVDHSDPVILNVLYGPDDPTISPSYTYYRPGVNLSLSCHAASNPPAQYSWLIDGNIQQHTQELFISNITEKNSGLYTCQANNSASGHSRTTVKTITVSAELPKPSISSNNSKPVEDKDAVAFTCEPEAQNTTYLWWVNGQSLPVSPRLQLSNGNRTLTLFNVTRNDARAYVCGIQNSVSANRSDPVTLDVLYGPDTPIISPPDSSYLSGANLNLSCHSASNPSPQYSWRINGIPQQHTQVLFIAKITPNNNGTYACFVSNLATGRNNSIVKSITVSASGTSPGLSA

ATACCAGCTTATTCAATT (ssDNA, 5'-phosphate-C6) [CEA-specific aptamer]
binding result: binds
